The supplement of paper PMC10724198
± gives the standard deviation of the averaged measurements.

How the values were obtained:
Saccharomyces cerevisiae [1] = assay: protein stability index of tFT-peptide fusion (C-terminal peptide) (PSI (0-1 scale)); higher = more stable (slower turnover); details: genetic background: wild type; temperature: 30 C
Saccharomyces cerevisiae [2] = assay: as above
Protocol: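 MPS profiling in S. cerevisiae of the tFT-X12 degron library: putative degron peptides plus stable controls, 12 aa, fused to the C-terminus of a sfGFP-mCherry timer. Cells are FACS-sorted into 8 mCherry/sfGFP bins and deep-sequenced. PSI runs from 0 (unstable) to 1 (stable). Backgrounds are wild type, das1Δ and doa10Δ at 30 °C, and wild type, das1Δ, cdc34-1 and cdc53-1 at 37 °C; 2-3 technical replicates each.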

[3] = genetic background: cdc34-1, temperature: 37 C
[4] = genetic background: cdc53-1, temperature: 37 C
[5] = genetic background: das1 deletion, temperature: 30 C
[6] = genetic background: das1 deletion, temperature: 37 C
[7] = genetic background: doa10 deletion, temperature: 30 C
[8] = genetic background: wild type, temperature: 30 C
[9] = genetic background: wild type, temperature: 37 C
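Further: PSI is a weighted mean of sequencing reads over stability bins, variants kept only with over 10 reads, mCherry proximal and sfGFP distal, peptide attached via GGGS linker.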

Sequence | protein stability index (Saccharomyces cerevisiae [1]) | protein stability index (Saccharomyces cerevisiae [2]; [3]) | protein stability index (Saccharomyces cerevisiae [2]; [4]) | protein stability index (Saccharomyces cerevisiae [2]; [5]) | protein stability index (Saccharomyces cerevisiae [2]; [6]) | protein stability index (Saccharomyces cerevisiae [2]; [7]) | protein stability index (Saccharomyces cerevisiae [2]; [8]) | protein stability index (Saccharomyces cerevisiae [2]; [9])
VVVLLLVVWFCL | 0.379 ± 0.04 | 0.29 ± 0.014 | 0.4134 ± 0.0018 | 0.316 ± 0.027 | 0.428 ± 0.027 | 0.283 ± 0.0079 | 0.296 ± 0.025 | 0.391 ± 0.019
VVVWLFRIKSNV | 0.425 ± 0.025 | 0.46 ± 0.012 | 0.586 ± 0.0096 | 0.358 ± 0.059 | 0.576 ± 0.005 | 0.279 ± 0.0084 | 0.318 ± 0.022 | 0.497 ± 0.026
VWGLWRLCVWGV | 0.371 ± 0.057 | 0.3896 ± 0.0011 | 0.479 ± 0.0054 | 0.327 ± 0.036 | 0.5012 ± 0.0017 | 0.274 ± 0.0082 | 0.302 ± 0.025 | 0.477 ± 0.0086
VWLFSWSVVGGT | 0.433 ± 0.02 | 0.436 ± 0.037 | 0.5425 ± 0.0026 | 0.369 ± 0.017 | 0.523 ± 0.012 | 0.369 ± 0.014 | 0.376 ± 0.0048 | 0.5069 ± 0.00074
VWSVSVTIVGRR | 0.458 ± 0.011 | 0.5289 ± 0.0013 | 0.573 ± 0.035 | 0.423 ± 0.037 | 0.528 ± 0.017 | 0.439 ± 0.032 | 0.455 ± 0.0093 | 0.507 ± 0.0052
VYFASCVVLLMV | 0.264 ± 0.029 | 0.159 ± 0.028 | 0.188 ± 0.025 | 0.194 ± 0.029 | 0.3194 ± 0.0019 | 0.159 ± 0.0018 | 0.174 ± 0.017 | 0.251 ± 0.015
VYLVVLYLRYFA | 0.227 ± 0.037 | 0.205 ± 0.031 | 0.22 ± 0.011 | 0.192 ± 0.038 | 0.359 ± 0.023 | 0.173 ± 0.0089 | 0.174 ± 0.016 | 0.306 ± 0.023
VYVYTIRVRWSE | 0.277 ± 0.015 | 0.135 ± 0.024 | 0.274 ± 0.039 | 0.197 ± 0.013 | 0.289 ± 0.023 | 0.164 ± 0.021 | 0.184 ± 0.027 | 0.269 ± 0.03
WAFVVCGAVFFW | 0.358 ± 0.019 | 0.264 ± 0.025 | 0.358 ± 0.031 | 0.299 ± 0.014 | 0.466 ± 0.005 | 0.289 ± 0.024 | 0.282 ± 0.036 | 0.412 ± 0.022
WCLLGVPVRVVV | 0.425 ± 0.033 | 0.373 ± 0.014 | 0.391 ± 0.056 | 0.307 ± 0.042 | 0.462 ± 0.0047 | 0.253 ± 0.0041 | 0.288 ± 0.042 | 0.441 ± 0.0045
WCVCVSMRMIAI | 0.165 ± 0.0094 | 0.15 ± 0.015 | 0.193 ± 0.008 | 0.201 ± 0.011 | 0.175 ± 0.013 | 0.202 ± 0.0073 | 0.187 ± 0.002 | 0.159 ± 0.013
WFIFATFLILVT | 0.193 ± 0.051 | 0.0797 ± 0.0056 | 0.112 ± 0.0058 | 0.136 ± 0.032 | 0.2121 ± 0.001 | 0.154 ± 0.014 | 0.121 ± 0.0082 | 0.182 ± 0.012
WFLVLLFFWFLL | 0.48 ± 0.073 | 0.524 ± 0.0097 | 0.628 ± 0.055 | 0.541 ± 0.0066 | 0.618 ± 0.028 | 0.55 ± 0.036 | 0.533 ± 0.022 | 0.566 ± 0.0068
WFYLLFVLFGLV | 0.426 ± 0.023 | 0.56 ± 0.026 | 0.614 ± 0.012 | 0.438 ± 0.033 | 0.542 ± 0.0065 | 0.409 ± 0.027 | 0.417 ± 0.017 | 0.51 ± 0.024
